Measured values: the DeepSol protein solubility set

Assay: soluble on expression in E. coli; label from the status in PepcDB or PDB records

Sequence	soluble on expression in E. coli
MKKYSFPVTYENVRFPPNGQLKLPVMPAEPFYDAEKGEKKYKSTKRMIEARGVEEVHTELIHEQYGLAAVSGGFIDSDDFKFIQDRINKNLIDNQFSVWRVDAPWLPRTKKAQGTRLGGGKGSIQKYVTPVRANRIILEVGGHITEIEAKAFLLYLCERFSFPVEFVSETMLAERRKKAEEERAMNKNGFNWGKVIKYNMQNCNSWLSSYDVAWKGKYR	not soluble
HPMCKEHEDEKINIYCLTCEVPTCSMCKVFGIHKACEVAPLQSVFQGQKTE	soluble
KIGFKLGGGFEYAFDNTWSLQPSLFLSTKGAKKDGNSINAMYLELPVMAAARFNVADNTNIVVNAGPYLACGIAGKTKIDLGNDTERKYDTFGDDALKRFDAGLGVGVALELGKVIVGLDGQFGLVDVEKIGNPKNTNFSIVLGYKF	not soluble
SARLADYFIVVGYDHEKPGSGEGLGKIIQRFPQKDWDDTPFPQGIELFCQPGGWQLSRERKQPTFFVVVLTDIDSDRHYCSCLTFYEAEINLQGTKKEEIEGEAKVSGLIQPAEVFAPKSLVLVSRLYYPEIFRACLGLIYTVYVDSLNVSLESLIANLCACLVPAAGGSQKLFSLGAGDRQLIQTPLHDSLPITGTSVALLFQQLGTVAHACNLSTLGGRGGQLTRSGDRDHPG	soluble
QTITIKGQVLDEKKQPVSYASVVISTDSLSKKDISYAVTDEHGQFRIGQLSAIPDKRWIHVRSIGYLGFHKQISLRAVKSPLDITLTEDTKELEEVVVVARARDAYAKGDTIVFNSKNYTLGNERNLGDVVKKMPGMEVDQTGNISYQGKKIGKVLVDGQDILSSSSGVAMNTLPPDFANSIELLSNYTDGDIAHAFKAEEQLALNLKSNKKVALSGSFEGGGGLKDKFISKASLITVLPKISASTIINANNTGEAVFSIQDYMSNIIDFESIRSGASTQTSLSLSPEEQQLLLPPTNEHARTAGLANINISWTPHSSYKLRASTLFNKGKSEGAHTKTDTYTLPENYFTNISTGTADKETQLVSQYLSQKWIPSRFFSVSAKTKIDIRNHNADNIYANTFNDNHIHALEKPKNHFSGIKQDIEMKWLLSKGLLFGGGSFVFNKGKINSDIYTDVLLLPLPHINGNSIYPYFHEHIKKDMEKGFNAYVGGMYPVLNNIYLRGEFSMSMNWNELKMAYPTSINEETADLRVFRPYISLMKNKGVFRFNIGSYFSSYRQKTSPELLREKSLFYIEPHASIELVMSNQHRLMLSVSEAVSPSTIDYFSQQILAKGYNNLQLPSKLSNPFAKRFKGNLSYAYFSLFNRLSMYGNLSYIKDRDTHITVTTSKGLLISNFYQDGGWSNTLRTNAYLSKGIGTLPLDIKLSGKYTLSKHNLMRVDKEDELINKRVDAKLDLISRLYQSPVNFEIGVRFSRLDQKFTYSNIHSWNQE	not soluble
MRGSHHHHHHGSRSSKNVIKEFMRFKVRMEGTVNGHEFEIEGEGEGRPYEGHNTVKLKVTKGGPLPFAWDILSPQFQYGSKVYVKHPADIPDYKKLSFPEGFKWERVMNFEDGGVVTVTQDSSLQDGCFIYKVKFIGVNFPSDGPVMQKKTMGWEASTERLYPRDGVLKGEIHKALKLKDGGHYLVEFKSIYMAKKPVQLPGYYYVDSKLDITSHNEDYTIVEQYERTEGRHHLFL	soluble
MKMNLSTPFPLGATLDAEGCNFAIYAPANRDILLALFHADGSYETHQLEHEYAGVKHTHISGIHAGQKYGYLIQLNDELHYISDPYARALEGPLHYAPPFDSHKSFDLPKCVVTDTHFDWQNVAKPRIARDEMVLFETHVKGLTQLNPDVEKALRGKYLGLVSQPMLDFYRQQNINTLQLLPIAACMHEPHLLESGKVNYWGYNPYVFMAPDPRYASKDAVNELKTTIRELHRNGIQVILDVVYNHTAEGGTNGPVFNLKALDPNYYLHHGDHYANYTGCGNTVDLSNQAALNLVMDTLRCWVTEYQIDGFRFDLAATLGRRGDEFSKEAAFFKAVAQDPVLREVKLIAEPWDIGPNGYQVGNFPFGWNETNDKLRDITRSFWRGDLGFLKEFATRLMGSRDLYSAANWPYKLTVNYITYHDGFTLQDLVSYKHKHNEANGEQNRDGHGDNRSDNYGFEGDTDSIVIRATRERQKRNFMASLLFAFGIPHILTADVLSHTQKGNNNAYCQDNDISWLNWENNETKQDFREWLAGMVAARQTYMVPFIRAFSGENRNNNRIAWRRVDGKPMEMDDWNRLSSVALHIGIGSDGPEMLYLINQTNAPARFVLPKDRQQDWRLICDTNMRHAQHGHAEGEVLQLPVSMSILHYQPKKKSA	soluble
MQWRRCKVITRDFLMNADCKTAFGAIEESLLWSAEQRAASLAATLACRPDEGPVWIFGYGSLMWNPALEFTESCTGTLVGWHRAFCLRLTAGRGTAHQPGRMLALKEGGRTTGVAYRLPEETLEQELTLLWKREMITGCYLPTWCQLDLDDGRTVNAIVFIMDPRHPEYESDTRAQVIAPLIAAASGPLGTNAQYLFSLEQELIKLGMQDDGLNDLLVSVKKLLAENYPDGVLRPGFALEHHHHHH	not soluble
GMALTPDQMPDRAEVVFTCNGKAVGKMRNELDVAMVKPFEERFALATDEGAFHGGDASAPPPLALFIAGLTGCVMTQIRAFAKRLKVTVTDLDVECRVVWDWAKAGPVYETGPKSFEIDIILHSPDPIEAQQALIEAAKKGCFLEQTLGQANTIRHRLKVGDTFIDA	soluble
MSRTAVREAVKTLTAKGMVLPRPRIGTRVMPQSNWNFLDQELLTWWITEENFHQVIDHFLVMRICLEPQACLLAATVGTAEQKAHLNTLMAEMAALKENFRRERWIEVDMAWHEHIYEMSANPFLTSFASLFHSVYHTYFTSITSDTVIKLDLHQAIVDAIIQSDGDAAFKACQALLRSPDK	not soluble
FCNAFTPVKAKEVKALILDFLHTNKITLQREIESSFITSAIIAHTGIDAFSISLLLDKNK	not soluble
DSGYSRETRALLFRAYRHDPTFAYLFNAEREGYEQRVLATIRQLVKQHFLQNQPALGLFLEDRLVGVALIAPPLRRLGVTESWAWRLRMVMDTGLGCTQRYLAYYNAVLACLPSETVHVLPLIGLDPEFQGQKMGQDLSEQLLAALHDWCAVDENSQGIVVDTGNPRYLEFYKRQGYEEIGEIAVGPV	not soluble
MTSIEPTHTGKKVIVGMSGGVDSSVSAYLLMQQGYQVEGLFMKNWEEDDNDEYCAAAEDLKDAQAVCDKLGIKLHTVNFAAEYWDNVFEYFLAEYKAGRTPNPDIMCNKEIKFKAFLEFADDILDADYIAMGHYVRRRDNEDGTTQMLRGVDNNKDQSYFLYTLSHEQVARSLFPVGELEKHEVREIAKQMGLITHDKKDSTGICFIGERKFTEFLGNYLPAQPGNIETADGEVIGTHQGLMYHTLGQRKGLGIGGMKNSNDDPWYVVDKDLKRNVLVVGQGGHHPRLMSNGMLVNQLHWVDRKGPINGSQIVVKTRYRQQDIPCTLTYLDDNTLKVVFDEPVAAVTPGQSAVFYDGEVCLGGGIIDQLIRGLEHHHHHH	soluble
MAGHSKWAQIKRKKAANDLKRGKLISKHLRAIQAAARAGGSPYPEANVQLRNAIEAARADDVPMENIERLLQKLQGGGEGAEQYEEIVYEGYAPGGVALLVYALTDNRNRTASEVRHVFSKHGGSLGTTGSVAWQFERRGVVVCENTEAAQEAAIELGALDLEEEGENLTVYTEPTEAYRIAEALKAKGVRVEAVEVVQHPQNTVALPPEEAQKVMRLVEALEDLDDVQHVYTNLDPESLQVEA	soluble
MSLTTVGIRGTFFDFVDDPWKHIGNEQAAARFHQDGLMVVTDGVIKAFGPYEKIAAAHPGVEITHIKDRIIVPGFIDGHIHLPQTRVLGAYGEQLLPWLQKSIYPEEIKYKDRNYAREGVKRFLDALLAAGTTTCQAFTSSSPVATEELFEEASRRNMRVIAGLTGIDRNAPAEFIDTPENFYRDSKRLIAQYHDKGRNLYAITPRFAFGASPELLKACQRLKHEHPDCWVNTHISENPAECSGVLVEHPDCQDYLGVYEKFDLVGPKFSGGHGVYLSNNEFRRMSKKGAAVVFCPCSNLFLGSGLFRLGRATDPEHRVKMSFGTDVGGGNRFSMISVLDDAYKVGMCNNTLLDGSIDPSRKDLAEAERNKLSPYRGFWSVTLGGAEGLYIDDKLGNFEPGKEADFVALDPNGGQLAQPWHQSLIADGAGPRTVDEAASMLFAVMMVGDDRCVDETWVMGKRLYKKSEGHHHHHH	soluble
MGSDKIHHHHHHMPAVVVREYARLTTAPLPQNTLDAAHISPSAFSWLVKLGQQFKANGLQLLELDDQQWLRLDNYVGVLESPCGQVIEILPKHRVEGECINSARKLLRKLILNALQLKQRETEYTDIERFDAPLTEWLMAQFLTELDSVIKRGMRFDYQRIEESQRFLRGQLDVVKQLRQPAGREHIFNIRHDIFTADRAENRLLKTALLRVCKTTQDNDNWRLAHELQSLLHELPTSTDIQADFTTWRSDRLMAHYQAIKPWCEFVLSQHVPLAVQGLWQGISMLFPMERLFESYVAAELDAAVQRMLGVKGEVRTQLASKYLCKHQGKDFFQLQPDLQLKLGADHWILDTKWKLLDASDKENKYGLSQQDFYQLFAYGQTYLGGDGTLVLIYPAWHKFPAGTYLGEFRFNDKLTLKVLPFDLDAQNAAKDLISKLQQGVKQSLPS	not soluble
MSLTIQMKNTGKRIDLIANRKPQSQRVLYELRDRLKRNQFILNDTNPDIVISIGGDGMLLSAFHKYENQLDKVRFIGLHTGHLGFYTDYRDFELDKLVTNLQLDTGARVSYPVLNVKVFLENGEVKIFRALNEASIRRSDRTMVADIVINGVPFERFRGDGLTVSTPTGSTAYNKSLGGAVLHPTIEALQLTEIASLNNRVYRTLGSSIIVPKKDKIELIPTRNDYHTISVDNSVYSFRNIERIEYQIDHHKIHFVATPSHTSFWNRVKDAFIGEVDEEGHHHHHH	soluble
MSHALRAVFLDHASLDLGDLDMRPLRAAFDELQLHAASQPQEVAARLHDARVAISNKVPIDAQCIAACPELELILISATGTNNIDLAAARERGIVVANCHGYGTPSVAQHTLALLLALATRLPDYQQAVRSGRWQQSSQFCLLDFPIVELEGKTLGLLGHGELGGAVARLAEAFGMRVLLGQLPGRPARADRLPLGELLPRVDALTLHCPLTEDTRGMLGSAELALMKPGAFLVNTARGGLVDEQALADALRGGHLGGAATDVLSVEPPRNGNPLLAPDIPRLIVTPHNAWGSREARQRIVGQLAENAEAWKAGR	not soluble
SLPTGGAPGRRWVGCRDMEHEVFVPVPAERLRDVLADPVRVARAVPGLQQDAGAEPVAGRLKVRIGSHSITYRGSLRLSARGDGTYAVEGDATESRGTGAVALALTLRADDAEGGATLTFTGTATADGRVAELPPDSVASAANRLLARFAENLGTAAQAPPAPEPEPSPQPEPRPASVFDTEVPPSSLADSGGGSDSDSDGDADEDTDAGADADADAQADEKAEAEGDADRGGRTDDEPAVSPPAEAAHARRTMIGRSAEEVDHAPPRGRYAPVPAPQPSAVGAPLRW	soluble
GKQKQYLFEARDITSRKLMEDKLYQRESSLRNYYEQQPVMMVTLDSHNRIQEVNRFAQLLLGYEPIEMLGHRLREFYLDDKALFPRQVLLQPSHQVHDVWRREIEYRHADGHSVWVRENIRPLNDSD	not soluble
MGHHHHHHSHMAGAQPGVHALQLKPVCVSDSLKKGTKFVKWDDDSTIVTPIILRTDPQGFFFYWTDQNKETELLDLSLVKDARCGRHAKAPKDPKLRELLDVGNIGRLEQRMITVVYGPDLVNISHLNLVAFQEEVAKEWTNEVFSLATNLLAQNMSRDAFLEKAYTKLKLQVTPEGRIPLKNIYRLFSADRKRVETALEACSLPSSRN	not soluble
AIASRAASLRAELTSLANAFEEERISSAERLDADLVRQAVEQAKPENLEQWKQVVHDATAKLQQFWEDSEQALIRETYALATSYLRESDDEVHRLQMTKKALEEQLETERRRSTRIEEQLAALQSRLLDSAAPAATTPADDARTQQEVLRSELQGFMQELVRNQRESLRVLQEELQRVREEASVREENLLRQIAHLKTELAVARTDNEVSSRQLRQLETSAGREEVQDELGPGTIWPPHLTPRRGHRRFQRHNRLEDAPAPPEF	soluble
